Results reported in publication PMC6787221.

Key:
[1] = target: STAM2 UIM-SH3 with the linker shortened by 14 amino acids (human); test: NMR titration; 1H-15N HSQC chemical shift perturbation of 15N-labelled US-WT, US-Δ1, US-Δ2 upon addition of unlabelled Lys63-Ub2 until saturation; 15 °C, 20 mM sodium phosphate pH 6.8, 10% D2O, 0.02% NaN3; 2:1 model (each domain interacts with one unit of Lys63-Ub2)
[2] = target: STAM2 UIM-SH3 with the linker shortened by 7 amino acids (human); test: as above

KD at the SH3 domain [1]: 483 µM | KD at the SH3 domain [2]: 253 µM
Substance: Lys63-linked diubiquitin (from UniProt P0CG48 1-76) (complex)
